Laboratory results from the RNAGym collection of RNA variant scans (doi:10.7554/elife.80360).

B1: Hairpin Ribozyme (parent)
chain: GUCCUCUUUCACGUGCGCGUGAAAGAGAGAAGUGAACCAGAGAAACACACGUUGUGGUAUAUUACCUGGUA

Variants of: B1
Assay: self-cleavage, relative activity (ratio to wild type); higher = more cleavage; co-transcriptional
Work on A36C A47U yielded a self-cleavage of 0.29. Variant A36C A47C has a self-cleavage of 0.262. With C38A A49U the self-cleavage was 0.0928. Variant A36C has a self-cleavage of 0.659. In the case of A36G, the self-cleavage is reported as 1.03. In the case of A36U, the self-cleavage is reported as 0.602. In the case of A35U U70G, the self-cleavage is reported as 0.874. Work on C38A C46A yielded a self-cleavage of 0.0508. C37U A59U gave a self-cleavage of 0.16. C38A U58G gave a self-cleavage of 0.204. With C38A A39U the self-cleavage was 0.206. C37G U63A gave a self-cleavage of 0.172. Variant C37G U63G has a self-cleavage of 0.129. C37A G68U gave a self-cleavage of 0.332. In the case of C38A C66G, the self-cleavage is reported as 0.114. Variant C37U U52G has a self-cleavage of 0.527. C37U U52C showed a self-cleavage of 0.651. C37G U67A gave a self-cleavage of 0.263. Work on C38A G56C yielded a self-cleavage of 0.136. Variant C38A G56A has a self-cleavage of 0.178. Work on A36U A47C yielded a self-cleavage of 0.146. For C38G G57A, the self-cleavage was 0.0627. C37G A47U gave a self-cleavage of 0.113. For A36U C66U, the self-cleavage was 0.166. Variant A36U C66G has a self-cleavage of 0.338. C37U U62C showed a self-cleavage of 0.0928. Work on C38U C50A yielded a self-cleavage of 0.207. Variant A35U G54A has a self-cleavage of 0.197. A35U G54C gave a self-cleavage of 0.0851. A36G C46G showed a self-cleavage of 0.178. Variant C37G G51U has a self-cleavage of 0.405. Variant A36G G54C has a self-cleavage of 0.544. A36G G54A showed a self-cleavage of 0.715. Variant C37U A41C has a self-cleavage of 0.567. With C38A G51A the self-cleavage was 0.349. Variant A35U U67A has a self-cleavage of 0.126. A35U U67G gave a self-cleavage of 0.161. C37A U58C gave a self-cleavage of 0.349. With C37A U58G the self-cleavage was 0.269. Variant C38A U60C has a self-cleavage of 0.251. Work on C37A U53C yielded a self-cleavage of 0.515. With C37A U53A the self-cleavage was 0.356. In the case of A36G A39G, the self-cleavage is reported as 0.513. For A36G A39U, the self-cleavage was 0.517. C37A U62C gave a self-cleavage of 0.196. A36G A64U gave a self-cleavage of 0.138. A36G A64G gave a self-cleavage of 0.492. For C37U A47C, the self-cleavage was 0.16. Work on A36G C66G yielded a self-cleavage of 0.288. A35U U53A gave a self-cleavage of 0.785. For C37G U62C, the self-cleavage was 0.152. Variant C37U C65G has a self-cleavage of 0.163. Work on C37U C65U yielded a self-cleavage of 0.316. A35U A64U showed a self-cleavage of 0.178. With A35U A64G the self-cleavage was 0.465. In the case of A36G U63C, the self-cleavage is reported as 0.201. A36G U63A gave a self-cleavage of 0.23. C37G A41C gave a self-cleavage of 0.282. For C37G A41G, the self-cleavage was 0.369. In the case of C38U A61U, the self-cleavage is reported as 0.164. Work on C37G G54A yielded a self-cleavage of 0.173. With C37U G69C the self-cleavage was 0.364. In the case of A36U A39G, the self-cleavage is reported as 0.344. For C37G C65U, the self-cleavage was 0.334. C37G C65A gave a self-cleavage of 0.179. Variant C37U A44G has a self-cleavage of 0.112. C37U U58A gave a self-cleavage of 0.48. With C37U U58G the self-cleavage was 0.553. Variant C37A A43G has a self-cleavage of 0.0981. A36C A39U showed a self-cleavage of 0.137. With A36C A39G the self-cleavage was 0.363. For A36C U52A, the self-cleavage was 0.768. A36C U52G showed a self-cleavage of 0.558. C37A A41U showed a self-cleavage of 0.429. Variant C37A A41C has a self-cleavage of 0.365. Variant A36U A71U has a self-cleavage of 0.524. In the case of A36U A71G, the self-cleavage is reported as 0.829. With C37U A64U the self-cleavage was 0.242. In the case of C37U A64G, the self-cleavage is reported as 0.456. For A36C U70A, the self-cleavage was 0.958. Variant C37A G69C has a self-cleavage of 0.467. In the case of A36C A61C, the self-cleavage is reported as 0.116. For A35U U60G, the self-cleavage was 0.343. With C37G G56U the self-cleavage was 0.0996. Variant C37U C66G has a self-cleavage of 0.195. Work on C37U C66A yielded a self-cleavage of 0.0721. A36G U52G gave a self-cleavage of 0.882. A36U A61G gave a self-cleavage of 0.156. With A36U A61U the self-cleavage was 0.213. C38G C65G showed a self-cleavage of 0.0624. For A36C C37A, the self-cleavage was 0.185. A36C C37U showed a self-cleavage of 0.148. With A36U A64C the self-cleavage was 0.0976. With A36U A64G the self-cleavage was 0.219. With C38A G42A the self-cleavage was 0.111. Work on C37A A39C yielded a self-cleavage of 0.128. For C38A A71C, the self-cleavage was 0.228. Variant A36U U53C has a self-cleavage of 0.593. Work on A36U U62A yielded a self-cleavage of 0.154. A36U U62G showed a self-cleavage of 0.216. Work on C38G G51U yielded a self-cleavage of 0.312. Variant C38G G51A has a self-cleavage of 0.271. With C37A G57A the self-cleavage was 0.145. C37A G57U showed a self-cleavage of 0.142. C38U A59C showed a self-cleavage of 0.228. Work on C37G U70C yielded a self-cleavage of 0.531. A36G C50A showed a self-cleavage of 0.34. For A36G U55A, the self-cleavage was 0.301. A36U G57A showed a self-cleavage of 0.108. A36U G57U gave a self-cleavage of 0.209. With A36C U63C the self-cleavage was 0.259. A36G A61G gave a self-cleavage of 0.154. In the case of A36G A61U, the self-cleavage is reported as 0.205. For C38A A45U, the self-cleavage was 0.143. Variant C38A A45G has a self-cleavage of 0.104. For A36U G69A, the self-cleavage was 0.173. A36U G69U showed a self-cleavage of 0.228. A36U G69C showed a self-cleavage of 0.127. Variant C38A U67C has a self-cleavage of 0.0697. Variant C38G A43C has a self-cleavage of 0.198. Work on C38G G56U yielded a self-cleavage of 0.0935. In the case of C38G G56A, the self-cleavage is reported as 0.134. For C38A G54A, the self-cleavage was 0.0977. C38A G54C gave a self-cleavage of 0.164. Variant C38A G54U has a self-cleavage of 0.135. Work on C37U G68A yielded a self-cleavage of 0.257. Work on A36U G68U yielded a self-cleavage of 0.118. Work on C37G U53G yielded a self-cleavage of 0.238. Work on C37G U53C yielded a self-cleavage of 0.586. A36G U62A gave a self-cleavage of 0.179. In the case of A36U G54U, the self-cleavage is reported as 0.325. With C37A C65G the self-cleavage was 0.124. C37G G68A gave a self-cleavage of 0.14. For A36G G40C, the self-cleavage was 0.122. For C37A U52G, the self-cleavage was 0.224. For A36C C50A, the self-cleavage was 0.0511. Variant A36C C50G has a self-cleavage of 0.131. For C37A C48G, the self-cleavage was 0.143. Work on C37A C48U yielded a self-cleavage of 0.0819. Variant C37G C66U has a self-cleavage of 0.286. In the case of A35U C38G, the self-cleavage is reported as 0.235. A36C C38U gave a self-cleavage of 0.274. A36C C38G gave a self-cleavage of 0.117. Work on A36C C38A yielded a self-cleavage of 0.253. Work on C38U A47G yielded a self-cleavage of 0.163. In the case of C38U A47C, the self-cleavage is reported as 0.276. Work on C37U C50U yielded a self-cleavage of 0.289. C37U C50A showed a self-cleavage of 0.116. Variant A36U A49G has a self-cleavage of 0.281. A36C A59U showed a self-cleavage of 0.157. C37A G42U showed a self-cleavage of 0.165. For C38A A41U, the self-cleavage was 0.286. C38A A41C showed a self-cleavage of 0.183. C38A U62G showed a self-cleavage of 0.139. C38G U60A gave a self-cleavage of 0.116. For A36G G68U, the self-cleavage was 0.237. A36G G68A showed a self-cleavage of 0.306. With C37A C46U the self-cleavage was 0.0922. Variant A36G U70A has a self-cleavage of 1.11. A36G U70C showed a self-cleavage of 1.35. With C37U U63A the self-cleavage was 0.24. In the case of C37U U63C, the self-cleavage is reported as 0.0912. In the case of A36C U55C, the self-cleavage is reported as 0.0703. In the case of C38G A64G, the self-cleavage is reported as 0.118. C38G A64C gave a self-cleavage of 0.0814. Variant C38A G69A has a self-cleavage of 0.146. A36U G42A gave a self-cleavage of 0.115.
